Source: the nanobody polyreactivity screen of Harvey et al. (2022)

Assay: yeast display, Sf9 membrane polyspecificity reagent, FACS + sequencing; frameworks hold sequencing errors
Outline: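 Galactose-induced (36–48 hours) yeast carrying a synthetic nanobody display library were exposed to 10% biotinylated, detergent-solubilized Sf9 membrane reagent at 4 °C for 1 hour. FACS followed streptavidin microbead enrichment, using low and high (top ~1%) gates for expression (anti-HA) and reagent binding (streptavidin). Colony PCR, MiSeq 2 × 250 sequencing and CDR-length filtering followed. Labels for polyreactivity reflect the gate of origin.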

Row | Sequence | polyreactivity (PSR sort gate)
1 | QVQLVESGGGLVQAGGSLRLSCAASGRIFYFNAMGWYRQAPGKERELVATITYIGGSTHYADSVKGRFTISRDNAKNTVYLQMNSLKPEDTAVYYCAVRDGKDTDTYWYGSWGQGTQVTVSS | low polyreactivity
2 | QVQLVESGGGLVQAGGSLRLSCAASGRIFYFYAMGWYRQAPGKERELVASISSGGITNYADSVKGRFTISRDNAKNTVYLQMNSLKPEDTAVYYCNAGYASGKYSGGYLYGYWGQGTQVTVSS | low polyreactivity
3 | QVQLVESGGGLVQAGGSLRLSCAASGRIFYGNAMGWYRQAPGKERELVAAITRSGGSTYYADSVKGRFTISRDNAKNTVYLQMKSLKPEDTAVYYCAKYRPGIPYYQYGSWGQGNQVTVSS | high polyreactivity
4 | QVQLVESGGGLVQAGGSLRLSCAASGRIFYGNVMGWYRQAPGKERELVAAISGGGSTNYADSVKGRFTISRDNAKNTVYLQMNSLKPEDTAVFYCAADSRPWGSSMDYWGQGTKVTVSS | low polyreactivity
5 | QVQLVESGGGLVQAGGSLRLSCAASGRIFYGYAMGWYIHAPGKERELVAAITYSGGITYYADSVKGRFTISRDNAKNTVYLQMNSLKPEDTAVYYCATSKSSVTGPDLDYWGQGTQVTVSS | high polyreactivity
6 | QVQLVESGGGLVQAGGSLRLSCAASGRIFYGYAMGWYRQAPAKERELVAAISWRGGRTYYADSVKGRFTISRDNAKNTVYLQMNSLKPEDTAVYFCNKDFPPQGQLRNMYYWGQGTLVTVSS | high polyreactivity
7 | QVQLVESGGGLVQAGGSLRLSCAASGRIFYGYAMGWYRQAPGKERELVAAIDWSGGSTYADSVKGRFTISRDNAKNTVYLQMNSLKPEDTAVYYCATDWVTSQQPYYWIYEYWGQGTQVTVSS | low polyreactivity
8 | QVQLVESGGGLVQAGGSLRLSCAASGRIFYGYAMGWYRQAPGKERELVAAIRWYVGNTYYADSVKGRFTISRDNAKNTVYLQMNSLKPEDTAVYYCNARTEYASSRYYYWGQGTQVTVSS | high polyreactivity
9 | QVQLVESGGGLVQAGGSLRLSCAASGRIFYGYAMGWYRQAPGKERELVAAITRGVSTYYADSVKGRFTISRDNAKNTVYLQMNSLKPEDTAVYYCAKDRRVRMDSWGQGTQVTVSS | low polyreactivity
10 | QVQLVESGGGLVQAGGSLRLSCAASGRIFYGYAMGWYRQAPGKERELVAGISYRGARTYYADSVKARFTISRDNAKNTVYLQMNSLKPEDTAVYNCNAVPYYPFAFGALDYSGQGTQVTVSS | high polyreactivity
11 | QVQLVESGGGLVQAGGSLRLSCAASGRIFYGYAMGWYRQAPGKERELVASISRRGSSTYYADSVKGRFTISRDNAKNTVYLQMNSLKPEDTAVYYCAAGYYPFNYWGQGTQLTVSS | high polyreactivity
12 | QVQLVESGGGLVQAGGSLRLSCAASGRIFYGYAMGWYRQAPGNERELVAAISSSGGSTYYADSVKGRFTISRDNAKYTVYLQMNSLKPDDTAVYYCNAQLYRPGYWYDYWGQGTQVTVSS | high polyreactivity
13 | QVQLVESGGGLVQAGGSLRLSCAASGRIFYGYTMGWYIQAPGKERELVAAISKHAGSTYYSDSVKGRFTISRDNAKNTVYLQMNSLKPEDTAVYYCAKDSSVQAYYGYWYTSTDDYWGQGTQVTVSS | low polyreactivity
14 | QVQLVESGGGLVQAGGSLRLSCAASGRIFYGYTMGWYRQAPGKERELVAAITQRGGNTHYADSVKGRFTISRDNAKNTVYLQMNSLKPEDTAVYYCAAKYYPYVRRVQYYYWGQGTQVTVSS | high polyreactivity
15 | QVQLVESGGGLVQAGGSLRLSCAASGRIFYHNAMGWYRQAPGKERELVAAITWSGGSTYYADSVKGRFTISRDNAKNTVYLQMNSLKTDDTAVYYCNALSNRYYSKLGSWGQGTQVTVSS | high polyreactivity
16 | QVQLVESGGGLVQAGGSLRLSCAASGRIFYHNTMGWYRQAPGKERELVAAIRSGSSSYYADSVKGRFTISRDNAKNTVYLQMNSLKPEDTAVYYCNARPWYSWGVDYDYWGQGTQVTVSS | low polyreactivity
17 | QVQLVESGGGLVQAGGSLRLSCAASGRIFYHYAMGWYRQAPGKERELVATIRRRGSSTYYADSVKGRFTISRDNAKNTVYLQMNSLKPEDTAVYYCAAGPTTNRYNYWGQGTQVTVSS | high polyreactivity
18 | QVQLVESGGGLVQAGGSLRLSCAASGRIFYINAMGWYRQAPGKERELVASITGSGGRTYYADSVKGRFTISRDNAKNTVYLQMNSLKPEDTAVYYCNADLYVGYLYYLYDYWGQGTQVTVSS | low polyreactivity
19 | QVQLVESGGGLVQAGGSLRLSCAASGRIFYINVMGWYRQAPGKERELVAGITWIGGSTYADSVKGRFTISRDNAKNTVYLQMNSLKPEVTAVYYCNADPDFTVYRYLWPEGVEYWGQGTQVTVSS | low polyreactivity
20 | QVQLVESGGGLVQAGGSLRLSCAASGRIFYIYAMGWYRQAPGKERELVATISVSGGRTYYADSVKGRFTISRDNAKNTVYLQMNSLKPEDTAVYYCAKECRFNIHKWYDYWGQGTQVTVSS | low polyreactivity
21 | QVQLVESGGGLVQAGGSLRLSCAASGRIFYIYAMGWYRQEPGKERELVAAISRRAASTYYADSVKGRFTISRDNAKNTVYLQMNSLKPEDTAVYYCAADYYDRKVEYYYWGQGTQVTVSS | high polyreactivity
22 | QVQLVESGGGLVQAGGSLRLSCAASGRIFYIYTMGWYRQAPGKEREFVAGINWNGGSTYYADSVKGRFTISRDNAKNTVYLQMNSLKPEDTAVYYCNADQYWDRYYYWGQGTQVTVSS | low polyreactivity

Row | Sequence | polyreactivity (PSR sort gate)
23 | QVQLVESGGGLVQAGGSLRLSCAASGRIFYKNAMGWYRPEPGKEREVVAAISSSGTRTYYADSVKGRFTISRENAKNTVSLQMNSLKPEDTAVYYCAAALGWYSAFGYWGQGTQVTVSS | high polyreactivity
24 | QVQLVESGGGLVQAGGSLRLSCAASGRIFYKNDLGWYRQAPGTETELVATLTYSDGTTYYADSVKGRFTISRDNAKNTVYLQMNSLKPEDTAVYYCAAQTDSVESDYWGQGTQVTVSS | low polyreactivity
25 | QVQLVESGGGLVQAGGSLRLSCAASGRIFYKYAMGWYRQAPGKERELVAGITGSGGSTYYADSVKGRFTISRDNAKNTVYLQMNSLKPEDTAVYYCAKRVSYDYWGQGTQVTVSS | low polyreactivity
26 | QVQLVESGGGLVQAGGSLRLSCAASGRIFYKYVMGGYRQAPGKARVLVAAINRSGGTTYYADSVKGRFTISRDNAKKTVYLQMNSQKPEDTAVYYCNATLPAYWPYYYYQGGDDYWGQGTQVTVSS | low polyreactivity
27 | QVQLVESGGGLVQAGGSLRLSCAASGRIFYKYVRGCYRQAPGKDRELVATITSGGSTYYADSVKGRFTISRDNAKNTVYLQMNSLNPEDTAVYYCAARKYYSRAYDYWGQGTQVTVSS | high polyreactivity
28 | QVQLVESGGGLVQAGGSLRLSCAASGRIFYLNAMGWYRQAPGKERELVATISSGGSTNYADSVKGRFTISRDNAKNTVYLQMNSLKPEDTAVYYCARKSLRYSYVYRDYWGQGTQVTVSS | low polyreactivity
29 | QVQLVESGGGLVQAGGSLRLSCAASGRIFYLYAMGWYRQAPGKERELVAAISVSGARTYYADSVKGRFTISRDNAKNTVYLHMNSLKPEDTAVYYCATVGPYRSRRAGDYWGQGTQVTVSS | high polyreactivity
30 | QVQLVESGGGLVQAGGSLRLSCAASGRIFYLYAMGWYRQAPGKERELVAAISWGGGSTYYADSVKGRFTISRDNAKNTVYLQMNSLKPEDTAVYYCAAAVTTWVEYDYWGQGTQVTVSS | low polyreactivity
31 | QVQLVESGGGLVQAGGSLRLSCAASGRIFYNNVMGWYRQAPGKERELVAAISGNGGSTYYADSVKGRFTISRDNAKNTVYLQMNSLKPEDTAVYYCAKGSHSYLISTGDYWGQGTQVTVSS | low polyreactivity
32 | QVQLVESGGGLVQAGGSLRLSCAASGRIFYNYAMGWYRQAPGKERELVAAISGSGGSTYYADSVKGRFTISRDNAKNTVYLQMNSLKPEDTAVYYCAADSYVSPEVRFDYWGQGTQVTVSS | low polyreactivity
33 | QVQLVESGGGLVQAGGSLRLSCAASGRIFYPNAMGWYRQAPGKERELVAAISWSGGSTYYADSVKGRFTISRDNAKNTVYLQMNSLKPEDTAVYFCAAKPYQVSSYDFSLRDYWGQGTQVTVSS | low polyreactivity
34 | QVQLVESGGGLVQAGGSLRLSCAASGRIFYPNAMGWYRQAPGKERELVAAISWSGGSTYYADSVKGRFTISRDNAKNTVYLQMNSLKPEDTAVYYCNAEYRYYQKTPGRYTNVEYDYWGQGTQVTVSS | low polyreactivity
35 | QVQLVESGGGLVQAGGSLRLSCAASGRIFYPYAMGWYRQAPGKERELVAAISLSGGSTLYADSVKGRFTISRDNAKNTVYLQMNSLKPEDTAVYYCAADQRTRYQTRQYYYWGQGTQVTVSS | low polyreactivity
36 | QVQLVESGGGLVQAGGSLRLSCAASGRIFYPYAMGWYRQAPGKERELVAAITSGGRTNYADSVKGRFTISRDNAKNTVYLQMNSLKPEDTAVYYCAATRFRHGKRMDYWGQGTQVTVSS | high polyreactivity
37 | QVQLVESGGGLVQAGGSLRLSCAASGRIFYPYAMGWYRQAPGKERELVAAITTSSARTYYADSVKGRFTISRDNAKNTVYLQMNSLKPEDTAVYYCAVKRGYYTTYRGYGYWGQGTQVTVSS | high polyreactivity
38 | QVQLVESGGGLVQAGGSLRLSCAASGRIFYPYAMGWYRQAPGKERELVAAITYSGGSTYYADSVKGRFTISRDNAKNTVYLQMNSLKPEDTAVYYCNAVQRGSFYLGKFGYWGQGTQVTVSS | high polyreactivity
39 | QVQLVESGGGLVQAGGSLRLSCAASGRIFYQNAMGWYRQAPGKERELVAGITRGGSTYYADSVKGRFTISRDNAKNTVYLQMNSLKPEETAVYYCAVAFWRTKWYDYWGQGTQVTVSS | low polyreactivity
40 | QVQLVESGGGLVQAGGSLRLSCAASGRIFYQYAMGWYRQAPGKERELVAAISWNGGRTYYADSVKGRFTISRDNAKNTVYLQMNSPKPEDTAVYYCNAVASKSFYYRDNYWGQGTQVTVSS | high polyreactivity
41 | QVQLVESGGGLVQAGGSLRLSCAASGRIFYRNAMGWYRQAPGKDRELVAGISKRGGSTYYADSVKGRFTISRDNAKNTVYLQMTSLKPEDTAVYYCNKVSFLNSHKSRGNRYYYWGQGTQVTVSS | high polyreactivity
42 | QVQLVESGGGLVQAGGSLRLSCAASGRIFYRNAMGWYRQAPGKEREFVAAITFRSGGTYYADSVKGRFTISRDNAKNTVYLQMNSLKPEDTAVYYCATRYLGASRYGYWGQGTQVTVSS | high polyreactivity
43 | QVQLVESGGGLVQAGGSLRLSCAASGRIFYRNAMGWYRQAPGKERELVAAITWRGGSTYYADSVKGRFTISRDNAKNTVYLQMNSLKPEDTAVYYCNTRYGRIHWKANWPEYGYWGQGTQVTVSS | low polyreactivity
